According to the supplement of paper PMC9170038:

What was measured:
MS2 coat protein [1] = assay: apparent KD of MS2 coat protein, switch OFF state (with FMN for OFF switches, without FMN for ON switches); designed switch direction (-1 OFF switch, 1 ON switch): -1; higher = weaker reporter binding; settings: FMN input: 0 or 200 uM; Eterna round: R93 (includes R88 designs)
Outline: (§1)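 On-chip transcription from Illumina sequencing clusters produced the designed RNA switches. These were titrated with SNAP-549-labelled MS2 coat protein (twofold steps, 0.7 or 1.5 nM to 3 µM) in 100 mM Tris-HCl pH 7.5, 80 mM KCl, 4 mM MgCl2, with or without constant ligand. The apparent KD given is the per-design median of normalised cluster binding-curve fits.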

MS2 coat protein [2] = assay: apparent KD of MS2 coat protein, switch ON state; designed switch direction (-1 OFF switch, 1 ON switch): -1; higher = weaker reporter binding; settings: FMN input: 0 or 200 uM; Eterna round: R93 (includes R88 designs)
Outline: as §1

Sequence	apparent KD of MS2 coat protein (MS2 coat protein [1])	apparent KD of MS2 coat protein (MS2 coat protein [2])
CUCAUGUAAGGAUAUGACUACAUAAAAAAAAAAAAAUGUAGUCAGAAGGUACAUGAGGAUCACCCAUGUACAAA [Brourd - Exclusion 4 - Sub 3]	25.2 nM	59 nM
AAGAAGUGAGGAUAUCGAAGACUGUCGAAAAGACAGUCGAACGAGAAGGCACAUGAGGAUCACCCAUGUGAGGG [Marsurpial 65% 3]	69.9 nM	130 nM
AAAUGAUGAGGAUAUACAUGAGGAUCACCCAUGUGUAAAAAUAAAUACACAAAAGAAAGUAGAAGGCAUCAAAG [Mat - Exclusion 3 - Mayanna mod - D119]	88.6 nM	27.8 nM
AGUGAGUGAGGAUAUUACUGAAGAAUAAAAGAAAUAACAAGUAAGAAGGCACAUGAGGAUCACCCAUGUACACA [May 61]	22 nM	22.4 nM
AAAGGACUAGGAUAUACAUGAGGAUCACCCAUGUAAAAAACAUAAUAAAAGAACUUAUGUAGAAGGAGUCCAAA [69%, Moding Meechl, 9]	93.7 nM	31.7 nM
AAAAAGUCAGGAUAUGUCAAAGGUCACGAAAGUGACAAAGGACAGAAGGGACAUGAGGAUCACCCAUGUAAAAA [Fiskers Exclusion 4 D1]	49.5 nM	53.5 nM
AAAAAACAUGAGGAUCACCCAUGUAAGGAUAUGCUAGGAAAAAGAAAAAUAAAAACUAGCAGAAGGUACAUAAA [JL wbt mod 10]	30.6 nM	25.3 nM
GCUUGUCAAGGAUAUACAUGAGGAUCACCCAUGUGAGAGAAAAAAGUGAGAAAGAAAAGUAGAAGGUGGUGAGG [salish99-ex3-78]	46.6 nM	33.3 nM
AAAAAGGGAGGAUAUGCAAAAAAAAAAAAAAAAAAAAAAAAACAUGAGGAUCACCCAUGUAGAAGGCCCAAAAA [Dora Baggins - Jieux - Exclusion 2]	34.4 nM	32.4 nM
CUCAUGUCAGGAUAUGUAGCAUGAUACGAAAGUAUCAUGCUACAGAAGGGACAUGAGGAUCACCCAUGUCAAAA [Ex4: 943]	17.5 nM	22.1 nM
AACUGACAUGAGGAUCACCCAUGUCAGGAUAUGCUUCAUAAAAAAAAAAAAAAAUGAUGCAGAAGGGACAUGAA [Design 25 :P Sub-opt 1]	14.1 nM	13 nM
AGAAAGCGAGGAUAUGCUCGGGUUGAAUGACGAGAGAAUACACAUGAGGAUCACCCAUGUAGAAGGUGUAUAAA [JR_Exc002_Sub1712]	35.1 nM	54 nM
AAACGUUGAGGAUAUACAGAAGGGUAUAAAUCAAAAAAAACACAUGAGGAUCACCCAUGUAGAAGGCAACGAAA	50.4 nM	98.9 nM
CCUAAGAAAGGAUAUACACCGGUGAACCGCUGAAAUCAGCAACAUGAGGAUCACCCAUGUAGAAGGUUUAUGGG [Erusqu]	133 nM	237 nM
AAGUGCGCAGGAUAUACAUGAGGAUCACCCAUGUAAAGAAAAGAAAGAUCCGAAGAAAGUAGAAGGGCGUGCAA [Variant 1 of Mod 1 of Ex3 sub 3, by Tesla's Dusciple Round 1]	209 nM	49.6 nM
ACUGAUACAGGAUAUACGUGAGUGGAAAAAGUGUUUCCACUACAUGAGGAUCACCCAUGUAGAAGGGUAUCAGA [Ex2 Design 180: Random 6]	91.5 nM	77.4 nM
AAGAAGGUAGGAUAUACUAGGGCAACUAAUGCAAAGAUAAAACAUGAGGAUCACCCAUGUAGAAGGGCCAGAAA [JR_Exc002_Sub401]	35.4 nM	33.8 nM
AAAGUGUGAGGAUAUGUCAAAGGACACGAAAGUGACAAAGGACAGAAGGUACAUGAGGAUCACCCAUGUAAAAA [milkweed 18]	20.6 nM	27.3 nM
GAAAAGUCAGGAUAUAUAGGAAAAAUAAAAAAAAUAAAACUAUAGAAGGGACAUGAGGAUCACCCAUGUUAAAA [Mat - Exclusion 4 - Mayanna - D131]	24.7 nM	43.9 nM
ACAAAACAUGAGGAUCACCCAUGUGAGGAUAUGCGAAACAAACAAACAAACAAACAAAGCAGAAGGCACAACAA [Ex 1 Tesla 3]	31 nM	19.5 nM
AAAAAGUCAGGAUAUGCACAAAAAAAAAUAAAAAAAAAAGUGCAGAAGGGACAUGAGGAUCACCCAUGUAAGAU [Mat - Exclusion 4 - Mayanna - D118]	77.2 nM	81 nM
AGGAAGUGAGGAUAUGCAUCAUAUAGUGGACGCUAUAGGAUGUAGAAGGCACAUGAGGAUCACCCAUGUUUAAA [EX4 Malc#40]	32 nM	29 nM
AAAAAAAAAGGAUAUAAAAAAAAAAGUCAGGAUAUAGGAAACUAGAAGGGACAUGAGGAUCACCCAUGUAAAAA [Meechl Ex4 R2 m0]	40.8 nM	63.5 nM

Sequence	apparent KD of MS2 coat protein (MS2 coat protein [1])	apparent KD of MS2 coat protein (MS2 coat protein [2])
AAGGGACAUGAGGAUCACCCAUGUGAGGAUAUGACGUAAAUAAAGAAAGAAGAAAUCGUCAGAAGGCACACCAA [55%, Disencluded 2, 3]	117 nM	67 nM
GAAAAACAUGAGGAUCACCCAUGUAAGGAUAUGCGAAAAUAAAAUAAAAUAAAAUAAAGCAGAAGGUACAAAAG [Mat - Exclusion 1 - Eli mod - D2]	58.4 nM	34.7 nM
AAGAUGUAAGGAUAUGCUGCUCGUCACAAAAGUGAUGAGUAGCAGAAGGUACAUGAGGAUCACCCAUGUAAAGA [JL eternac mod 10]	44 nM	31.5 nM
AAGAACAGAGGAUAUACAUGAGGAUCACCCAUGUAAAAGAAAGAGGGAAAAGAGAAAAGUAGAAGGCUGAAGAA [Arsinoe III]	31 nM	26.9 nM
AAAAGACAUGAGGAUCACCCAUGUAAGGAUAUGCAGAGAGCAAAACAAAAAAAAAAAAGCAGAAGGUACAUAAA [Design2]	65.1 nM	55.4 nM
AAAACGUGAGGAUAUGCACCAAAAAAGGUAAUUCGGGUACGACAUGAGGAUCACCCAUGUAGAAGGCACGAAAA [Frodo Flailing 12 - Jieux - Exclusion 2]	28.7 nM	29.9 nM
AACAGUACAGGAUAUACAUGAGGAUCACCCAUGUGAGAAUUAAGUGGCGUACCACAAAGUAGAAGGGUACUGGA [Maslow Revisited]	173 nM	35 nM
AUCUACCUAGGAUAUACAUGAGGAUCACCCAUGUACAGUUUCAACUAGGGAAACUCACGUAGAAGGAGGUAGAU [JR_Exc003_Sub1209]	25.2 nM	48.2 nM
AAGAAGUAAGGAUAUCGUGCUCGUCACAAAAGUGAUGAGUACGAGAAGGUACAUGAGGAUCACCCAUGUAAAGA [Opal 35]	21.9 nM	24.6 nM
AAGGUAGGAGGAUAUACAUAGAUACAGAUACAUGUAGACGUACAUGAGGAUCACCCAUGUAGAAGGCCUAUAUA [Mat - Same state - Mayanna Mod - D147]	107 nM	97.3 nM
AGGAUGUCAGGAUAUGUGUAAAGAAUAAAACAAAUAACAACACAGAAGGGACAUGAGGAUCACCCAUGUUACGA [May 43]	37.3 nM	31.1 nM
AGGAUGUCAGGAUAUGCGUGAAGAAUAAAACAAAUAACAACGCAGAAGGGACAUGAGGAUCACCCAUGUUAAGA [May 46]	68.3 nM	45.2 nM
GCUUUGCAAGGAUAUACAUGAGGAUCACCCAUGUGAGAGAAAAAAGUGAGAAAGAAAAGUAGAAGGUGCGGAGG [salish99-ex3-120]	44 nM	34.2 nM
AAAAAGGGAGGAUAUACAUGAGGAUCACCCAUGUGAAAGACGAAAAAGAGUCUAAAAAGUAGAAGGCCCAAAAA [65%, Moding Exclusion3-cac2, 9]	43 nM	33.5 nM
AAAAAGUGAGGAUAUGCGCUGUCAUGUAGACACGAGCAGUCGUAGAAGGCACAUGAGGAUCACCCAUGUUUAAA [EX4 Malc#24]	20 nM	31.9 nM
AACAGUACAGGAUAUACAUGAGGAUCACCCAUGUGGGAAUUAAGUGGCGUACCACAAUGUAGAAGGGUACUGGA [JL In the Red]	228 nM	129 nM
AACAGUACAGGAUAUACAUGAGGAUCACCCAUGUGGGUAAAAAGAUCGAGAGAUCAAUGUAGAAGGGUACUGGA [JL In the Red 04]	104 nM	259 nM
AAAACGUGAGGAUAUGCACCAAAAAAGGUAAAUCGGGUACGACAUGAGGAUCACCCAUGUAGAAGGCACGAAAA [Frodo Flailing 11 - Jieux - Exclusion 2]	42.9 nM	28.2 nM
AAGAAGAGAGGAUAUACAAAAUAAAAGAAAAGAAAGAAAGAACAUGAGGAUCACCCAUGUAGAAGGCUCAAGAA [Hotepibre Qemau Siharnedjheritef]	28.4 nM	25.6 nM
AAGAAUCGAGGAUAUACAUGAGGAUCACCCAUGUAAAAGAAAGAAGGGAAAGAGAAAAGUAGAAGGCGAAAGAA [Menkheperre Nekau I]	27.7 nM	22.6 nM
AAGGGACAUGAGGAUCACCCAUGUAAGGAUAUCGGAAAAGGAAAAAAAAAAAAGAAGACGAGAAGGUACAAAAA	71.6 nM	122 nM
AAAAAGUGAGGAUAUGCAGUGGCCUGUAGACGCGAGCACUUGUAGAAGGCACAUGAGGAUCACCCAUGUUUAAA [EX4 Malc#29]	20.5 nM	21.3 nM
